Assay results reported in US20240181074A1 (SHENZHEN ENDURING BIOTECH, published 2024).

How the values were obtained:
[1] = target: T1, human CD19-Fc protein (AcroBiosystems, Cat. CD19-H5259 / Code CD9-H5259) (human, UniProt P15391 20-291); assay: BiaCore SPR, ligand captured by Fc capture
T1 construct: not shown: Fc of the bought CD19-Fc
T1 sequence (looked up): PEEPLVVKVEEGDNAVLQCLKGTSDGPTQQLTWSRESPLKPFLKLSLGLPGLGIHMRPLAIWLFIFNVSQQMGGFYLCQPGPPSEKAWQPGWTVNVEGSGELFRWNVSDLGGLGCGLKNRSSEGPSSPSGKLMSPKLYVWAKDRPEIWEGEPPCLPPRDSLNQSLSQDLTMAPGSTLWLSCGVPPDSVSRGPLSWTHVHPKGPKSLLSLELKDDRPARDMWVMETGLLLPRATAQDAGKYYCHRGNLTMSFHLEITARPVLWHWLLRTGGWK
Description: General procedure: Diluted human CD19 (AcroBiosystems, Cat. CD19-H5259) or human CD3E&3D (AcroBiosystems, Cat. CDD-H52W0) were captured on the sensor chip through Fc capture method. The capture time for human CD3E & CD3D and for human CD19 was set for 12 s and 12-30 s respectively and capture flow rate was […]. Each sample tested was serially diluted into 6-8 concentrations. The association time and dissociation time for the analytes were set for 180 s and 420 s respectively, and the flow rate for the analyte was set at […]. For surface regeneration, 10 mM Glycine-HCl buffer was used; the contact time was set for 30 s and the flow rate was […]. Flow cell 1 and blank injection of buffer in each cycle were used as double references for Response Units subtraction. All data were processed using BiaCore T2000 Evaluation software (version 3.1).

[2] = target: T2, human CD19 on cells (human, UniProt P15391 20-556); assay: cell-based or functional assay
T2 sequence (looked up): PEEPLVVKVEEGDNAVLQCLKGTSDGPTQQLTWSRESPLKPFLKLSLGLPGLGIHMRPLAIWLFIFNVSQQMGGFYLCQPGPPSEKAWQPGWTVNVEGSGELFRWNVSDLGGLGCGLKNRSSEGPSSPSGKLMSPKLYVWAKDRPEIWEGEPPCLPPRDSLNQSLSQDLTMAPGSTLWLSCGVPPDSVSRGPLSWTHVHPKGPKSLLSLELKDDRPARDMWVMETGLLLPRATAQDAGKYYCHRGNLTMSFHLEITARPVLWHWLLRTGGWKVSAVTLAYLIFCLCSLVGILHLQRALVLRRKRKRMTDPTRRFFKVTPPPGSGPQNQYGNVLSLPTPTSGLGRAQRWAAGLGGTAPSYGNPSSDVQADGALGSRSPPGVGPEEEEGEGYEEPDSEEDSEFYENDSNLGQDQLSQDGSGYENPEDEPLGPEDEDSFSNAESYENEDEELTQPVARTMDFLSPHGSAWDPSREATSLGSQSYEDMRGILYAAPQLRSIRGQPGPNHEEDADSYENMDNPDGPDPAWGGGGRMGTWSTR

| Binder | Kd [1] | koff [1] | kon [1] | EC50 of cell killing (MTS cytotoxicity), Nalm-6, E:T=5:1 [2] | EC50 of cell killing (MTS cytotoxicity), Nalm-6, E:T=10:1 [2] | EC50 of cell killing (MTS cytotoxicity), REH [2] | EC50 of cell killing (MTS cytotoxicity), Raji [2] |
| --- | --- | --- | --- | --- | --- | --- | --- |
| JY108 (PEGylated BsAb anti-CD3 x anti-CD19) (bispecific antibody, conjugated through a linker to the branched terminal of mPEG (structure given only as a drawing); residue not given, also called PEGylated T-BsAb JY108) scFv 1: DIQLTQSPASLAVSLGQRATISCKASQSVDYDGDSYLNWYQQIPGQPPKLLIYDASNLVSGIPPRFSGSGSGTDFTLNIHPVEKVDAATYHCQQSTEDPWTFGGGTKLEIKGCGGGSGGGGSGGGGSQVQLQQSGAELVRPGSSVKISCKASGYAFSSYWMNWVKQRPGQGLEWIGQIWPGDGDTNYNGKFKGKATLTADESSSTAYMQLSSLASEDSAVYFCARRETTTVGRYYYAMDYWGQGTTVTVSS scFv 2: not shown | 1.44 nM | 0.000566 s⁻¹ | 392000 M⁻¹ s⁻¹ | 0.0376 µg/mL | 0.0147 µg/mL | 0.0104 µg/mL | 0.159 µg/mL |
| anti-CD19 scFv (SCACD19) (scFv) scFv: DIQLTQSPASLAVSLGQRATISCKASQSVDYDGDSYLNWYQQIPGQPPKLLIYDASNLVSGIPPRFSGSGSGTDFTLNIHPVEKVDAATYHCQQSTEDPWTFGGGTKLEIKGCGGGSGGGGSGGGGSQVQLQQSGAELVRPGSSVKISCKASGYAFSSYWMNWVKQRPGQGLEWIGQIWPGDGDTNYNGKFKGKATLTADESSSTAYMQLSSLASEDSAVYFCARRETTTVGRYYYAMDYWGQGTTVTVSSHHHHHH | 0.0653 nM | 0.000343 s⁻¹ | 5.26e+06 M⁻¹ s⁻¹ | – | – | – | – |
| anti-CD19 scFv-Linker (anti-CD19-Linker) (scFv, conjugated to a linker (linker is a much smaller PEG11); the residue is not given, Linker conjugate of SCACD19; also called SCACD19-linker) scFv: DIQLTQSPASLAVSLGQRATISCKASQSVDYDGDSYLNWYQQIPGQPPKLLIYDASNLVSGIPPRFSGSGSGTDFTLNIHPVEKVDAATYHCQQSTEDPWTFGGGTKLEIKGCGGGSGGGGSGGGGSQVQLQQSGAELVRPGSSVKISCKASGYAFSSYWMNWVKQRPGQGLEWIGQIWPGDGDTNYNGKFKGKATLTADESSSTAYMQLSSLASEDSAVYFCARRETTTVGRYYYAMDYWGQGTTVTVSSHHHHHH | 0.111 nM | 0.000309 s⁻¹ | 2.79e+06 M⁻¹ s⁻¹ | – | – | – | – |
